Experimental data taken from the supplement of paper PMC10567573.

B1: PTPRD (parent)
chain: PVVSMDLDPQPITDEEEGLIWVVG

Variants of: B1
Assay: protein stability index of a GFP-peptide fusion (GPS, HEK-293T) (PSI 1-6); higher = more stable
Conditions: c terminus: a fixed tail appended
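Also: lentivirally expressed fusions sorted by FACS into six bins by GFP to DsRed ratio, PSI derived from sequencing read proportions per bin multiplied by bin number.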

Variant | protein stability index
PVVSMDSDPQPITDEEEGLIWVVG | 4.33
PVVSMDHDPQPITDEEEGLIWVVG | 3.48
PVVSMDIDPQPITDEEEGLIWVVG | 3.94
PVVSMDRDPQPITDEEEGLIWVVG | 4.4
PVVSMDGDPQPITDEEEGLIWVVG | 4.87
PVVSMDADPQPITDEEEGLIWVVG | 4.31
CVVSMDLDPQPITDEEEGLIWVVG | 3.12
YVVSMDLDPQPITDEEEGLIWVVG | 1.52
RVVSMDLDPQPITDEEEGLIWVVG | 2.62
LVVSMDLDPQPITDEEEGLIWVVG | 1.79
FVVSMDLDPQPITDEEEGLIWVVG | 1.19
DVVSMDLDPQPITDEEEGLIWVVG | 4.28
EVVSMDLDPQPITDEEEGLIWVVG | 3.2
GVVSMDLDPQPITDEEEGLIWVVG | 3.77
PVVSMDLAPQPITDEEEGLIWVVG | 3.73
PVVSMDLNPQPITDEEEGLIWVVG | 3.55
PVVSMDLPPQPITDEEEGLIWVVG | 3.56
PVVSMDLMPQPITDEEEGLIWVVG | 3.29
PVVSMDLTPQPITDEEEGLIWVVG | 3.61
PVVSMDLGPQPITDEEEGLIWVVG | 3.8
PVVSMDLYPQPITDEEEGLIWVVG | 2.74
PVVSMDLDPQPITDEEEGLITVVG | 4.69
PVVSMDLDPQPITDEEEGLIFVVG | 4.08
PVVSMDLDPQPITDEEEGLIVVVG | 4.27

Variant | protein stability index
PVVSMDLDPQPITDEEEGLIAVVG | 6
PVVSMDLDPQPITDEEEGLISVVG | 5.43
PVVSMDLDPQPITDEEEGLIYVVG | 4.1
PVVSMDLDPQPITDEEEGLIDVVG | 5.06
PVVSMDLDPQPITDEEEGLIIVVG | 3.62
PNVSMDLDPQPITDEEEGLIWVVG | 3.84
PQVSMDLDPQPITDEEEGLIWVVG | 3.94
PEVSMDLDPQPITDEEEGLIWVVG | 4.23
PIVSMDLDPQPITDEEEGLIWVVG | 3.05
PHVSMDLDPQPITDEEEGLIWVVG | 3.67
PFVSMDLDPQPITDEEEGLIWVVG | 3.16
PDVSMDLDPQPITDEEEGLIWVVG | 3.95
PRVSMDLDPQPITDEEEGLIWVVG | 4.6
PAVSMDLDPQPITDEEEGLIWVVG | 4.31
PVVSTDLDPQPITDEEEGLIWVVG | 4.01
PVVSCDLDPQPITDEEEGLIWVVG | 4.64
PVVSHDLDPQPITDEEEGLIWVVG | 4.66
PVVSWDLDPQPITDEEEGLIWVVG | 3.51
PVVSDDLDPQPITDEEEGLIWVVG | 4.71
PVVSKDLDPQPITDEEEGLIWVVG | 4.64
PVVSYDLDPQPITDEEEGLIWVVG | 3.54
PVVSADLDPQPITDEEEGLIWVVG | 4.97
PVVSMFLDPQPITDEEEGLIWVVG | 2.36
PVVSMYLDPQPITDEEEGLIWVVG | 2.25

Variant | protein stability index
PVVSMLLDPQPITDEEEGLIWVVG | 3.35
PVVSMNLDPQPITDEEEGLIWVVG | 4.53
PVVSMCLDPQPITDEEEGLIWVVG | 3.6
PVVSMHLDPQPITDEEEGLIWVVG | 3.24
PVVSMTLDPQPITDEEEGLIWVVG | 3.25
PVVSMRLDPQPITDEEEGLIWVVG | 3.67
PVVSMQLDPQPITDEEEGLIWVVG | 3.5
PVVSMVLDPQPITDEEEGLIWVVG | 2.7
PVVSMDLDPQPITDEETGLIWVVG | 3.31
PVVSMDLDPQPITDEENGLIWVVG | 3.37
PVVSMDLDPQPITDEEYGLIWVVG | 1.38
PVVSMDLDPQPITDEEKGLIWVVG | 3.12
PVVSMDLDPQPITDEEVGLIWVVG | 1.75
PVVSMDLDPQPITDEECGLIWVVG | 2.25
PVVSMDLDPQPITDEERGLIWVVG | 2.75
PVVSMDLDPQPITDEEPGLIWVVG | 2.38
PVVSMDLDPQPITDEEGGLIWVVG | 3.34
PVVSMDLDPQPITDEEDGLIWVVG | 4.26
PVVSMDLDPQPITDECEGLIWVVG | 1.94
PVVSMDLDPQPITDEYEGLIWVVG | 2.79
PVVSMDLDPQPITDEWEGLIWVVG | 2.27
PVVSMDLDPQPITDEHEGLIWVVG | 3.2
PVVSMDLDPQPITDEDEGLIWVVG | 4.08
PVVSMDLDPQPITDESEGLIWVVG | 3.36

Variant | protein stability index
PVVSMDLDPQPITDETEGLIWVVG | 2.87
PVVSMDLDPQPITDEAEGLIWVVG | 3.22
PVVSMDLDPQPITDEVEGLIWVVG | 1.5
PVVSMDLDPQPITDPEEGLIWVVG | 3.19
PVVSMDLDPQPITDCEEGLIWVVG | 3.25
PVVSMDLDPQPITDREEGLIWVVG | 3.57
PVVSMDLDPQPITDTEEGLIWVVG | 2.33
PVVSMDLDPQPITDDEEGLIWVVG | 2.31
PVVSMDLDPQPITDQEEGLIWVVG | 3.77
PVVSMDLDPQPITDNEEGLIWVVG | 3.67
PVVSMDLDPQPITDWEEGLIWVVG | 1.61
PVVSMDLDPQPITDEEEGLIWCVG | 3.9
PVVSMDLDPQPITDEEEGLIWHVG | 4.85
PVVSMDLDPQPITDEEEGLIWDVG | 5.28
PVVSMDLDPQPITDEEEGLIWSVG | 4.7
PVVSMDLDPQPITDEEEGLIWKVG | 4.57
PVVSMDLDPQPITDEEEGLIWLVG | 3.94
PVVSMDLDPQPITDEEEGLIWTVG | 4.26
PVVSMDLDPQPITDEEEGLIWGVG | 4.92
PVVSMDLDPQPITDEEEGLIWYVG | 5.12
PVVSMDLDPQPITDEEEGLIWEVG | 5.47
PVVSMDLDPQPITDEEEGLIWRVG | 3.89
